± gives the standard deviation of the averaged measurements.
System: Saccharomyces cerevisiae
Assay: protein stability index of tFT-peptide fusion (C-terminal peptide) (PSI (0-1 scale)); higher = more stable (slower turnover)
Details: genetic background: wild type; temperature: 30 C
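Further: PSI is a weighted mean of sequencing reads over stability bins, variants kept only with over 10 reads, mCherry proximal and sfGFP distal, peptide attached via GGGS linker.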

Sequence	protein stability index
SSRYVATANICR	0.69 ± 0.013
SSSCRGGVSVLV	0.679 ± 0.044
SSSRHHTSLFSP	0.679 ± 0.014
SSSYPFPAPALR	0.683 ± 0.043
SSTVGKEGTSRI	0.69 ± 0.048
SSVNRTADGTKP	0.69 ± 0.02
SSWWPVRRTRLG	0.587 ± 0.022
SSYYTGVVTACL	0.659 ± 0.052
STAELSNSLIGR	0.703 ± 0.033
STGSAISSLSDR	0.68 ± 0.11
STHLPPLPATLP	0.784 ± 0.1
STILSAEKTKLG	0.707 ± 0.02
STNIDQKKKEEK	0.7 ± 0.03
STPPPPHSASRS	0.728 ± 0.059
STPRLERDGTTI	0.635 ± 0.014
STRLFTHPRFLP	0.68 ± 0.013
STSRSFFFCSFL	0.644 ± 0.072
STSSPSSSTLLP	0.719 ± 0.031
STSWDDLLYHSG	0.716 ± 0.059
STTLKIHRKNRK	0.725 ± 0.063
STTQFTLSATRI	0.717 ± 0.093
STVKARVLIITS	0.5231 ± 0.0032
STVTSGCLKRIS	0.723 ± 0.03
STYIMTFTSWEP	0.68 ± 0.0078
SVCLLKSWHERQ	0.725 ± 0.033
SVDEARSVRCVI	0.661 ± 0.025

Sequence	protein stability index
SVFFFLPIYFPF	0.633 ± 0.033
SVFVDNLAFSLD	0.708 ± 0.071
SVGFYMLECVDD	0.688 ± 0.0099
SVGGVGVEIQSV	0.629 ± 0.15
SVGVGSFVVLGV	0.6543 ± 0.0024
SVHRRRSLLTPL	0.706 ± 0.05
SVKHTFAHSVNS	0.6442 ± 0.0018
SVKTGAAKDRLE	0.6929 ± 0.003
SVLDAVGGSVTA	0.668 ± 0.092
SVLRPPAAPPFL	0.674 ± 0.046
SVLVLGRSRPSF	0.688 ± 0.047
SVLWLSSLRVPL	0.7074 ± 0.0032
SVPTSLCYSFSP	0.5957 ± 0.0034
SVRAHGDIQIPR	0.732 ± 0.073
SVRHPPWDHRPP	0.571 ± 0.083
SVSCVSRTVAPS	0.684 ± 0.027
SVSTDTLQVYAI	0.658 ± 0.013
SVSVFLMGLRGT	0.694 ± 0.015
SVTDCTADHASV	0.653 ± 0.056
SVTLYLTPPSLT	0.67 ± 0.062
SVTPSPPPSRPF	0.678 ± 0.057
SVVSLLCQFLLG	0.673 ± 0.13
SVWVCLASWCCG	0.5487 ± 0.0038
SVYLKLSECRSV	0.6877 ± 0.0018
SVYLPFPSGLLL	0.728 ± 0.073
SWTEPISNTVLP	0.77 ± 0.034

Sequence	protein stability index
SYGWYRVRLLDC	0.57 ± 0.088
SYLWRINVSGCV	0.6955 ± 0.0013
SYPTRSKSAYSL	0.652 ± 0.059
SYSSILPPLSSA	0.686 ± 0.022
SYVLIYAPLSSL	0.661 ± 0.036
SYVYMIQRANAV	0.5609 ± 0.004
TAATLVYKQNQK	0.66 ± 0.12
TAKGSSIMCVKI	0.729 ± 0.05
TAPPPSQTPPRT	0.684 ± 0.0076
TAPSGIYFSLPL	0.66 ± 0.054
TARSTSPHHIPR	0.835 ± 0.22
TASAGLVAAATI	0.668 ± 0.034
TCPPAPSTGPST	0.648 ± 0.0073
TCTIQSEDFHEI	0.707 ± 0.063
TDNIRIERYKEQ	0.689 ± 0.064
TDWCPQSCVCSL	0.647 ± 0.051
TDYSSPKTSLSR	0.668 ± 0.056
TEEVRVRVQTEL	0.663 ± 0.035
TESGVCWCRREV	0.685 ± 0.04
TEVWERGKNVGE	0.635 ± 0.03
TEWIRGTAVNSS	0.701 ± 0.023
TEYRRRPNETAM	0.705 ± 0.037
TFIKMEKKKDGG	0.663 ± 0.034
TFLMEMVPRLFI	0.664 ± 0.036
TFLPPTTSPYVL	0.738 ± 0.052
TFPPSAPQSSCS	0.7041 ± 0.0027

Sequence	protein stability index
TFPRRCILNIQI	0.635 ± 0.024
TFQMAYHSRTAV	0.637 ± 0.13
TFREMPESIGNG	0.654 ± 0.047
TFSFPSPAPHSC	0.781 ± 0.033
TFSHRVICTGND	0.733 ± 0.072
TFSPPLSSPPGP	0.706 ± 0.032
TGEVSTRVGQRE	0.66 ± 0.07
TGIDLPHFVSLF	0.658 ± 0.088
TGKWRSFQAYYY	0.667 ± 0.039
TGNSPSRTGNGI	0.647 ± 0.018
TGSKKKKVEIEM	0.679 ± 0.048
TGSRHDLDGSMK	0.679 ± 0.017
TGWRFVRSKGGS	0.741 ± 0.045
THCSGAGPPSPP	0.689 ± 0.068
THKGAPTCRSAR	0.6723 ± 0.0037
THLASTESVVRP	0.69 ± 0.033
THPPATSPPPYP	0.6631 ± 0.0057
THTPPPSPLTLP	0.671 ± 0.021
THTTIQKTNQNE	0.703 ± 0.026
TIASGCTWSPGH	0.645 ± 0.013
TIDACFHSDWGC	0.782 ± 0.11
TIELNLPPSVVR	0.642 ± 0.037
TIGPVRSGHVLA	0.6807 ± 0.0055

Source: the supplement of paper PMC10724198
